These results are taken from PMC10835923.

Assay [1] deals with CXC chemokine receptor 3 isoform A (CXCR3A) on transfected CHO cells (UniProt P49682).
The target in assay [2] is CXCR3 on primary human T lymphocytes stimulated with PHA and IL-2 (human (endogenous in primary T lymphocytes)) (UniProt P49682).

With “C-terminally truncated CXCL10(1-73) (from UniProt P02778 22-94) (ligand)”, in assay [1], the desensitization: reduction of the calcium increase to 3 nM CXCL10(1-77) in CXCR3A-transfected CHO cells when 45 nM (69.9%) or 90 nM (72.2%) CXCL10(1-73) was added 100 s before was found to be 72.2%. The substance also yielded a CXCR3 internalization: mean MFI of surface CXCR3 on PHA- and IL-2-stimulated primary T lymphocytes, as % of medium-treated cells, after 45 nM (90.1%) or 90 nM (83.3%) for 10 min at 37 °C in assay [2] of 90.1%.
